Assays:
[1] = molecular target: Photosystem II subunit S (PsbS) of Physcomitrella patens, recombinant, detergent-refolded (Physcomitrella patens); test: DOSY NMR; PsbS in FC-12, pH 7.5; 1H HN intensities, double-exponential fit
[2] = molecular target: Photosystem II subunit S (PsbS) of Physcomitrella patens, recombinant, detergent-refolded (Physcomitrella patens); test: DOSY NMR; PsbS in FC-12, pH 5.0; 1H HN intensities, double-exponential fit
[3] = molecular target: Photosystem II subunit S (PsbS) of Physcomitrella patens, recombinant, detergent-refolded (Physcomitrella patens); test: SEC; Superdex 200 5/150 GL; 100 mM sodium phosphate pH 7.5 with 0.05% FC12; detection at 260 nm
[4] = molecular target: Photosystem II subunit S (PsbS) of Physcomitrella patens, recombinant, detergent-refolded (Physcomitrella patens); test: SEC; Superdex 200 5/150 GL; 100 mM sodium phosphate pH 7.5 with 1% OG; detection at 260 nm
[5] = molecular target: Photosystem II subunit S (PsbS) of Physcomitrella patens, recombinant, detergent-refolded (Physcomitrella patens); test: SDS-PAGE without boiling; PsbS refolded in FC-12, pH 7.5; samples taken day 0 to day 90 after refolding; not boiled before loading
[6] = molecular target: Photosystem II subunit S (PsbS) of Physcomitrella patens, recombinant, detergent-refolded (Physcomitrella patens); test: SDS-PAGE without boiling; PsbS refolded in FC-12, pH 5.0; samples taken day 0 to day 90 after refolding; not boiled before loading

- stoichiometry N [1]: 2
- stoichiometry N [2]: 2
- stoichiometry N [3]: 2
- stoichiometry N [4]: 2
- stoichiometry N [5]: 2
- stoichiometry N [6]: 2
Substance: Photosystem II subunit S (PsbS) of Physcomitrella patens, recombinant, detergent-refolded (natural protein)
